# From patent US20140287989A1 (CENTRE NATIONAL DE LA RECHERCHE SCIENTIFIQUE, published 2014)
# “And” between values parts separate entries of the source, which are not always exact repeats. Identical values can stand only once. Square brackets hold non-standard residues; d marks the D form. Phe(3,4-Cl2) = N[C@@H](Cc1ccc(Cl)c(Cl)c1)C(=O)O; Phe(4-Br) = N[C@@H](Cc1ccc(Br)cc1)C(=O)O; Phe(4-Cl) = N[C@@H](Cc1ccc(Cl)cc1)C(=O)O; Phe(4-Me) = Cc1ccc(C[C@H](N)C(=O)O)cc1; hCha = N[C@@H](CCC1CCCCC1)C(=O)O; Cha = N[C@@H](CC1CCCCC1)C(=O)O
# B1: P13, Ac-Gln-Cha-Asp-Leu-pBrPhe-OH (peptide)
# peptide: Ac-Q[Cha]DL[Phe(4-Br)]-OH
# SMILES: CC(=O)N[C@@H](CCC(N)=O)C(=O)N[C@@H](CC1CCCCC1)C(=O)N[C@@H](CC(=O)O)C(=O)N[C@@H](CC(C)C)C(=O)N[C@@H](Cc1ccc(Br)cc1)C(=O)O
# notes: X stands for Cha; the substituted phenylalanine is written F; also called Ac-Q Cha DL pBrF
# B2: P12, Ac-Gln-Cha-Asp-Leu-pClPhe-OH (peptide)
# peptide: Ac-Q[Cha]DL[Phe(4-Cl)]-OH
# SMILES: CC(=O)N[C@@H](CCC(N)=O)C(=O)N[C@@H](CC1CCCCC1)C(=O)N[C@@H](CC(=O)O)C(=O)N[C@@H](CC(C)C)C(=O)N[C@@H](Cc1ccc(Cl)cc1)C(=O)O
# notes: X stands for Cha; the substituted phenylalanine is written F; also called Ac-Q Cha DL pClF
# B3: P14, Ac-Gln-Cha-Asp-Leu-(3,4-di-Cl)Phe-OH (peptide)
# peptide: Ac-Q[Cha]DL[Phe(3,4-Cl2)]-OH
# SMILES: CC(=O)N[C@@H](CCC(N)=O)C(=O)N[C@@H](CC1CCCCC1)C(=O)N[C@@H](CC(=O)O)C(=O)N[C@@H](CC(C)C)C(=O)N[C@@H](Cc1ccc(Cl)c(Cl)c1)C(=O)O
# notes: X stands for Cha; the substituted phenylalanine is written F; also called Ac-Q Cha DL diClF; Bu29
# B4: E. coli DNA polymerase IV (enzyme)
# chain: MRKIIHVDMDCFFAAVEMRDNPALRDIPIAIGGSRERRGVISTANYPARKFGVRSAMPTGMALKLCPHLTLLPGRFDAYKEASNHIREIFSRYTSRIEPLSLDEAYLDVTDSVHCHGSATLIAQEIRQTIFNELQLTASAGVAPVKFLAKIASDMNKPNGQFVITPAEVPAFLQTLPLAKIPGVGKVSAAKLEAMGLRTCGDVQKCDLVMLLKRFGKFGRILWERSQGIDERDVNSERLRKSVGVERTMAEDIHHWSECEAIIERLYPELERRLAKVKPDLLIARQGVKLKFDDFQQTTQEHVWPRLNKADLIATARKTWDERRGGRGVRLVGLHVTLLDPQMERQLVLGL
# notes: Called the whole polymerase / the full PolIV enzyme; construct and tags not described; also called PolIV; Pol IV
# B5: E. coli DNA polymerase IV (enzyme)
# chain: B4 chain
# notes: also called PolIV; Pol IV
# B6: P1, natural C-terminal heptapeptide of E. coli DNA polymerase IV (RQLVLGL) (peptide)
# peptide: H-RQLVLGL-OH
# notes: Free peptide in ITC; also called H-Arg-Gln-Leu-Val-Leu-Gly-Leu-OH
# B7: P1, H-Arg-Gln-Leu-Val-Leu-Gly-Leu-OH (peptide)
# peptide: H-RQLVLGL-OH
# notes: also called RQLVLGL; natural Cter heptamer of E. coli DNA polymerase IV
# B8: P11, Ac-Gln-Cha-Asp-Leu-pMePhe-OH (peptide)
# peptide: Ac-Q[Cha]DL[Phe(4-Me)]-OH
# SMILES: CC(=O)N[C@@H](CCC(N)=O)C(=O)N[C@@H](CC1CCCCC1)C(=O)N[C@@H](CC(=O)O)C(=O)N[C@@H](CC(C)C)C(=O)N[C@@H](Cc1ccc(C)cc1)C(=O)O
# notes: X stands for Cha; the substituted phenylalanine is written F; also called Ac-Q Cha DL pMeF
# B9: P8, Ac-Gln-hCha-Asp-Leu-Phe-OH (peptide)
# peptide: Ac-Q[hCha]DLF-OH
# SMILES: CC(=O)N[C@@H](CCC(N)=O)C(=O)N[C@@H](CCC1CCCCC1)C(=O)N[C@@H](CC(=O)O)C(=O)N[C@@H](CC(C)C)C(=O)N[C@@H](Cc1ccccc1)C(=O)O
# notes: X stands for the non-natural residue; also called Ac Q hCha DLF
# Tests used:
# [1] = target: E. coli β clamp (β subunit of DNA polymerase III, dnaN gene product), N-tagged (E. coli) (UniProt P0A988); assay: SPR competition against P1
# [2] = target: E. coli β clamp (β subunit of DNA polymerase III, dnaN gene product), N-tagged (E. coli) (UniProt P0A988); assay: SPR competition against P1, ratio of IC50 values; written as printed, the two labels seem exchanged against Table 14 and paragraph 151
# [3] = target: E. coli β clamp (β subunit of DNA polymerase III, dnaN gene product) (E. coli) (UniProt P0A988); assay: SPR competition: peptide with β ring injected on immobilized P1
# [4] = target: E. coli β clamp (β subunit of DNA polymerase III, dnaN gene product), N-tagged (E. coli) (UniProt P0A988); assay: ITC, peptide 400 µM into β ring 20 or 30 µM, 25° C
# [5] = target: E. coli β clamp (β subunit of DNA polymerase III, dnaN gene product), N-tagged (E. coli) (UniProt P0A988)
# [6] = target: E. coli β clamp (β subunit of DNA polymerase III, dnaN gene product), N-tagged (E. coli) (UniProt P0A988); assay: SPR competition (Biacore 3000): β ring 0.25 µM mixed with the challenger, injected on immobilised P1
# [7] = target: E. coli β clamp (β subunit of DNA polymerase III, dnaN gene product) (E. coli) (UniProt P0A988); assay: SPR competition, concentration of peptide that challenges 50% of the binding of β ring to P1
# [8] = target: E. coli β clamp (β subunit of DNA polymerase III, dnaN gene product), N-tagged (E. coli) (UniProt P0A988); assay: SPR competition on immobilised P1
# [9] = target: E. coli β clamp (β subunit of DNA polymerase III, dnaN gene product), N-tagged (E. coli) (UniProt P0A988); assay: SPR competition on immobilised P1; ΔG = -RT ln Ki
# [10] = target: T1, E. coli β clamp (β subunit of DNA polymerase III, dnaN gene product), N-tagged (E. coli, UniProt P0A988 1-366); assay: SPR competition on immobilised P1; ΔG = -RT ln Ki
# T1 construct: The dnaN gene was cloned in pET15b and expressed in BL21 E. coli; also called β ring; β protein; not shown: N-terminal tag from the pET15b vector (N-tagged protein, enriched on Ni-NTA)
# [11] = target: T2, E. coli β clamp (β subunit of DNA polymerase III, dnaN gene product) (E. coli, UniProt P0A988 1-366); assay: SPR competition; ΔG = -RT ln Ki
# T2 construct: Homodimeric ring; N-tagged protein expressed in BL21 E. coli and purified on Ni-NTA and MonoQ; also called β ring; β protein; not shown: N-terminal tag from the pET15b plasmid
# [12] = target: T2, E. coli β clamp (β subunit of DNA …); assay: SPR competition: peptide with β ring injected on immobilized P1
# [13] = target: T2, E. coli β clamp (β subunit of DNA …); assay: as above; remark: listed apart in the source
# [14] = target: T1, E. coli β clamp (β subunit of DNA …); assay: cell-based or functional assay
# [15] = target: T1, E. coli β clamp (β subunit of DNA …); assay: SPR competition on immobilised P1
# [16] = target: T3, E. coli β clamp (β subunit of DNA polymerase III, dnaN gene product) (E. coli, UniProt P0A988 1-366); assay: ITC, peptide 400 µM into β ring 30 µM, 25 °C, second experiment
# T3 construct: Expressed in BL21 E. coli from pET15b with an N-terminal tag; also called β ring; β protein; not shown: N-terminal tag from plasmid pET15b ('N-tagged protein', purified on Ni-NTA)
# [17] = target: T3, E. coli β clamp (β subunit of DNA …); assay: SPR competition, β ring on immobilised P1
# [18] = target: T3, E. coli β clamp (β subunit of DNA …); assay: ITC, peptide 400 µM into β ring 30 µM, 25 °C
# [19] = target: T2, E. coli β clamp (β subunit of DNA …); assay: SPR competition: peptide with β ring injected on immobilized P1; remark: listed apart in the source
# T1 sequence (P0A988 whole entry): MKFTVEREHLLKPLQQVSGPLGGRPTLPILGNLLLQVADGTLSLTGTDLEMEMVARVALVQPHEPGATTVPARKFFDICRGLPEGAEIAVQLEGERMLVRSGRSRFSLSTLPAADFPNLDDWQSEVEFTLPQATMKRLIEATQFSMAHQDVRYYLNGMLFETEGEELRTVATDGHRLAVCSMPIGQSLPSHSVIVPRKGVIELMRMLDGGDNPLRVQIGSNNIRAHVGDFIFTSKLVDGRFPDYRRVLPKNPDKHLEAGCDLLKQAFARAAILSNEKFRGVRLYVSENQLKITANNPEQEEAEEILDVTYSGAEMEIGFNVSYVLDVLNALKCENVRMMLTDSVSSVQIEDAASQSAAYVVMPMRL
# E. coli β clamp (β subunit of DNA polymerase III, dnaN gene product), N-tagged (E. coli), sequence (P0A988 whole entry): as above
# E. coli β clamp (β subunit of DNA polymerase III, dnaN gene product) (E. coli), sequence (P0A988 whole entry): as above
molecule,measurement,setting,value
P14-7 (Ac R Q Cha R L F) (peptide),affinity ratio against P7,[1],> 50 fold
same,affinity ratio against P7,[2],5 fold
"P17, Ac Q Cha D Cha F (peptide)",IC50,[3],310 nM
"P21, Ac-Q Cha DLW (peptide; other documents disagree on this pair)",IC50,[3],640 nM
P12 (Ac-Q Cha DL pClF) (peptide),Kd,[4],100 nM
same,"IC50, Pol IV based biochemical assay (inhibition of β dependent Pol IV elongation)",[5],300 nM
"P18, Ac Q Cha D hCha F (peptide)",IC50,[3],720 nM
P4 (RQLVFL) (peptide; other documents disagree on this pair),IC50,[6],256000 nM
"P20, Ac-Q Cha DL Cha (peptide)",IC50,[3],410 nM
"P22, Ac-Q Cha DL Atda (peptide)",IC50,[3],3720 nM
P14-8 (Ac R Q Cha K L F) (peptide; other documents disagree on this pair),Ki,[1],1000 nM
same,fold decrease in affinity against P14,[1],10 fold
same,Ki,[7],904 nM
same,affinity ratio against P7,[2],50 fold
P3 (RQLVLF) (peptide),"IC50, Pol IV based biochemical assay (inhibition of β dependent Pol IV elongation)",[5],7000 nM
P2 (RQLVLL) (peptide; other documents disagree on this pair),IC50,[6],21500 nM
same,fold decrease in interaction against P1,[8],2 fold and 3 fold
same,ΔG,[9],-6.54 kcal/mol
"P19, Ac Q ChaD NptGly F (peptide)",IC50,[3],5630 nM
P11 (Ac-Q Cha DL pMeF) (peptide),Kd,[4],380 nM
same,"IC50, Pol IV based biochemical assay (inhibition of β dependent Pol IV elongation)",[5],2000 nM
"P23, Ac-QFDLF (peptide; other documents disagree on this pair)",IC50,[3],31600 nM
"P16, Ac Q Cha D hLeu F (peptide)",IC50,[3],230 nM
P13 (Ac-Q Cha DL pBrF) (peptide),Kd,[4],150 nM
same,"IC50, Pol IV based biochemical assay (inhibition of β dependent Pol IV elongation)",[5],250 nM
P14-5 (Cin R Q Cha N L diClF) (peptide; other documents disagree on this pair),Ki,[7],3250 nM
QLDLF [P5 (QLDLF)],ΔG,[10],-6.87 kcal/mol
"Ac-QLDLF-OH (also called AcQLDLF) [P6, Ac-Gln-Leu-Asp-Leu-Phe-OH]",ΔG,[11],-8.22 kcal/mol
B1,IC50,[12],96 nM
same,IC50,[13],100 nM
same,ΔG,[11],-9.71 kcal/mol
"Ac-QLDLF-OH (also called Ac-Gln-Leu-Asp-Leu-Phe-OH) [P6 (AcQLDLF), listing 1 of 2 here]","IC50, Pol IV based biochemical assay (inhibition of β dependent Pol IV elongation)",[14],4500 nM
same,times tighter binding than P1,[15],~8 fold
same,ΔG,[10],-8.22 kcal/mol
B2,IC50,[12],160 nM
same,IC50,[13],160 nM
same,ΔG,[11],-9.73 kcal/mol
B3,IC50,[12],77 nM
same,IC50,[13],72 nM
same,ΔG,[11],-9.85 kcal/mol
B4,ΔG,[10],-9.09 kcal/mol
B5,ΔG,[11],-9.09 kcal/mol
B6,Kd,[16],2010 nM
same,ΔG,[16],-7.7 kcal/mol
same,ΔH,[16],-5.5 kcal/mol
same,ΔS,[16],7.6 cal/mol/deg
same,IC50,[17],8850 nM
same,Kd,[18],1580 nM
same,ΔG,[18],-7.9 kcal/mol
same,ΔH,[18],-4.09 kcal/mol
same,ΔS,[18],12.8 cal/mol/deg
B7,IC50,[12],8850 nM
same,ΔG,[11],-7.06 kcal/mol
B8,IC50,[12],260 nM
same,IC50,[13],260 nM
same,ΔG,[11],-9.44 kcal/mol
"Ac-QLDLF-OH (also called Ac-Gln-Leu-Asp-Leu-Phe-OH) [P6 (AcQLDLF), listing 2 of 2 here]",Kd,[16],613 nM
same,ΔG,[16],-8.3 kcal/mol
same,ΔH,[16],-11.1 kcal/mol
same,ΔS,[16],-9.08 cal/mol/deg
same,Kd,[18],820 nM
same,ΔH,[18],-11.3 kcal/mol
same,ΔS,[18],-10.4 cal/mol/deg
B9,IC50,[12],82800 nM
same,IC50,[19],82800 nM
same,ΔG,[11],-5.74 kcal/mol
"H-QLDLF-OH (also called QLDLF) [P5, H-Gln-Leu-Asp-Leu-Phe-OH]",ΔG,[11],-6.87 kcal/mol
